Experimental data reported in the DeepSol protein solubility set.

assay: soluble on expression in E. coli; label from the status in PepcDB or PDB records

| Sequence | soluble on expression in E. coli |
| --- | --- |
| MGSDKIHHHHHHMRRSSLKEPGPASAIRTENFTRGMGEVPAALGKVCRGGSHAKAHERGLIMLISQILDDAETIRVVARNGGKTRIINGARSVYSLAMEAARTGVGLATLIERKGLGETVDLDAAYKKGRLLSPINHPDPAHLHLTGTGLTHLGSAATRDSMHKKLSSADGEEQLTDSMKMFRMGLEGGKPAKGQVGVQPEWFYKGNGTMAVAPGAALLSPAFAKDAGEEPEIAGIYVIGDDGAPFRVGFTLSNEFSDHVTERVNYLFLAHSKLRNASFGPEILIGDLPSDIRGTSRIVRDGETLWEKPFLSGEANMSHTIANLEHHHFKYSAFRQPGDVHVHMFGTATLSFADGVKTEAGDVFEIEAGDFGLPLRNPLEIEKPVKVAVKAL | not soluble |
| MGSDKIHHHHHHMESMLKKICQDPVLQKDKDFLLFLTSDDFSSESKKRAFLTGSGAINDSNDLSEVRISEIQLLGAEDAAEVLKNGGIDAESHKGFMSISFSSLPKYNEADEFFIEKKQKIDELEDNLKKLSKSLEMVDTSRNTLAASTEEFSSMVETLASLNVSEPNSELLNNFADVHKSIKSSLERSSLQETLTMGVMLDDYIRSLASVKAIFNQRSKLGYFLVVIENDMNKKHSQLGKLGQNIHSEKFREMRKEFQTLERRYNLTKKQWQAVGDKIKDEFQGFSTDKIREFRNGMEISLEAAIESQKECIELWETFYQTNL | not soluble |
| MGSDKIHHHHHHMQNKNKTVVKSMALLNLFLHKPSLTLSELVSLTGMPKTSVHRMVSSLEEMGFLSRDASGAYSLGLVFLEFGQLVADRLDIRKIAKPVMEELCREVDEAVQLIMRDGNEAIYVEKIEGTQTVRLYTAIGRRSPLYAGACARSILSFLPREEIEAYIKQTELISIGSGTITDPEKLLQEIDASVQNGYTVSYSELENYTAAIGAPIFNHERQVAAGISIAGFEARFTEDRLPYLTEKVKDAALQISRK | not soluble |
| MARMYRALTRDIEVTVDPYYLEEQSDPDDDRYVWGYKVVIANNSDVPVKLVNRYWHITDQNGQVDEVYGPGVVGEQPQLKPGDSYEYSSGCPLDTPSGLMFGHYEMETENGEVFNVTIPAFSLDSPGLMRVLNAAALEHHHHHH | soluble |
| MSLRKLYTKELSVTGSAINHHRIFDSSAHFKGALTIKILPENTAMFNPLHESYCLPMDTNLFKINSIDVPIRINSTEEIEYIELEYRDLYTNSVELRSLSKKDFKIIDNPKSFLKKDQSVLKSHSNDFEEGSTIRYLAVTLQDIGFYQIKKIVDSKKLNLKIHQSHLVVPYCPIASITGTGSNDRCIGDSDNVSFEIQGVPPMKLAYSKIVNGQTFSYVDSSLQPEYFESPLQSSKSKQSFTQGELNDLKWGRNQPVNINLDSSITQDGKFAYKIDKITDGLGNVVDFTSLPEELKKREGHHHHHH | soluble |
| MSVDLAHIRQVRAEADCLFNNDEVEAAIGRVAEAINRDLGETNPVVFCVMNGGLIFSGKLLPLLDFPLELSYLHATRYRNETSGGELFWKAKPEISFIDRDVLIIDDILDEGHTLSAIIDFCKHAGARAVHTAVLVDKEHERKARPDLKASFTGLYCADRYVFGYGMDYKGYWRNAAGIFAVKGL | not soluble |
| MNKEEQYLLFALSAPMEILNQGCKPAHDSPKMYTGIKEFELSSSWGINNRDDLIQTIYQMTDDGHANDLAGLYLTWHRSSPEEWKALIAGGSERGLIYTQFVAQTAMCCGEGGIKAWDYVRMGFLSRVGVLNKWLTEEESLWLQSRVYVRAHHYYHSWMHYFSAYSLGRLYWQSSQCEDNTSLREALTLYKYDSAGSRMFEELAAGSDRFYATLPWQPLTVQSECPVTLKDVSDL | soluble |
| MSLQDESPLLIITDSALVRDALVTHISETRRLLIADSHDVGMELALSFRPALILLDASSTDGEALALLRAFRSEPHLDDTFILVLSDEAAVLERLEASRAGADDFLRLPVDQAELTARVAVALRQARLSRRLRAYTRRIEEEMRLVADLQMRLLPAYTPYLASLRIDSFYQPSTEASGDYFDHFLLPGEDRLRVVIADASGHGARSAVLMTMVRTLFHASHAANTPLTDMLLEINTNLLDVVGNEPDFVTLFAADLDLRGNTLRYVNAGHCPALLRHPDGTTMRLSGTTPRLGFFGVRETERLVPFTPGTRLLLYTDGFHDCATASGRRLGIDRFLSLAEATMRRGGDVLSSLREDISTTFGEPPTWPDDVTALYIERKEEGHHHHHH | soluble |
| MEKLAAKVLENFDFLKKLLRDRAECGESEITIYDDPVTIVVKRDRIDFFINEEYHGSVGVGFNTLSDEIREEARLWLEGLAGMKFKRYAVRR | not soluble |
| MAEAYLEYLGKHDVLTKLHNRAFYSDELNRLERSALRPVSAIVIDLNGLKEANDKLGHDAGDALLRRVGEVLNGVVTAPNHAARIGGDEFAILLPGADKQVAAAMVDTVYELLKINNQFYSSAPLSLSLGVATTEAGETMESLVRRADMNMYEQKNAYYAALRNRSADNNDTTKGLEHHHHHH | soluble |
| MSIEGGNYRRIRNFVDRECAKECIEDFSCFGYEWNSEEKICYLKSRSTSGKLIAKPNTMVGFCQDDEDEVRYRLQDHVIVGPIVMEADDVPDGEECKENCRKVGALYYSWRPNSDNQRSNVVPVEEEEDDEEQEVLGHCECISTMNELRLEYDAFSGFIPIPKHKHRRSILLRPFEI | not soluble |
| AAPGKPTIAWGNTKFAIVEVDQAATAYNNLVKVKNAADVSVSWNLWNGDTGTTAKILLNGKEAWSGPSTGSSGTANFKVNKGGRYQMQVALCNADGCTASDATEIVVADTDGSHLAPLKEPLLEKNKPYKQNSGKVVGSYFVEWGVYGRNFTVDKIPAQNLTHLLYGFIPICGGNGINDSLKEIEGSFQALQRSCQGREDFKVSIHDPFAALQKAQKGVTAWDDPYKGNFGQLMALKQAHPDLKILPSIGGWTLSDPFFFMGDKVKRDRFVGSVKEFLQTWKFFDGVDIDWEFPGGKGANPNLGSPQDGETYVLLMKELRAMLDQLSAETGRKYELTSAISAGKDKIDKVAYNVAQNSMDHIFLMSYDFYGAFDLKNLGHQTALNAPAWKPDTAYTTVNGVNALLTQGVKPGKIVVGTAMYGRGWTGVNGYQNNIPFTGTATGPVKGTWENGIVDYRQIASQFMSGEWQYTYDATAEAPYVFKPSTGDLITFDDARSVQAKGKYVLDKQLGGLFSWEIDADNGDILNSMNASLGNSAGVQLEHHHHHH | soluble |
| MGKKVVVIGAGPGGIMAAGKAAERGHNVTLFEKNDRIGKKILISGKGRCNITNNTDIEGLIENIPGNGNFLYSAFYTFSNHDLIEFFEQYGLKTKVERGGRVFPVSDDAKDVNNALLKFLNKAKVNLRLNSPVQEIKAKNNTVTGVVLKDGTEVPCDAVVLATGGASYPGTGSTGDGYVMAKKLGHTIVDLKPSLVPLLAEEEWVKELQGLSLKNVSITILSKAGKKIYTDFGEMLFTHFGVSGPIILSASRHILDYDYKNVKLVIDLKPALSEEKLDERILRDFEKYSRKQYKNSLDDLLPKKMIPVIVKLSGIEPEKFVNQIKKEERRALVRLLKNLTLNINGSRPIKEAIVTAGGVSTDEINPSTMESKLVKGLYFAGEIIDVDGYTGGFNLTIAFSTGYLAGVSC | soluble |
| MAHHHHHHMADATLLHHLIEVLPKAELHVHIEGTLSPELLFELAKRNGVQIPYKTVEEVRVAYNFTDLQSFLDLYYEGMSVLITEDDFEDLAYAYTRVMHESRVVHAEPFFDPQGHLCRGVTFRVLYDGLMRGFRRGEAEFGVSVMLIFSFLRHLSEEECLALVLDDMHPDNGQYIRELFVAKAFVAVGLDSSELGHPPEKFARLYRYCREELKVPFLVAHAGEEGPPEYMRDAMSMLKVDRIDHGVAARLDQALCKDLREKRIPLTVCPTSNVALKVFQDRATCGAVVMDLILTEGLCVTINSDDPAYFGGDIRESFRILAETGRLTPATLKQLVLNSFSSSFIADDSKRAYKERVEKVFKDVCGGTYE | soluble |
| MKKEHLKFVIDSRCFRGSCVTSMSDGIHCDYYGSTLEELKKQENNPFLVAVTRNAIHKRSRIHDKSLCRPFREITEENYYNCMNELPPVRLKHHSFFFGEPYHGSLYMFCFTIGKRFFRGLRPVMTPQAELERQMNEHYHNITFKGKVTKGKAERITSKDKQEIITIPYSFTDKENRERFICNMVTGGNDGGDTCKARKDMTNILLSLRKHHFLYFSGYGRHDDMETLLDEVEEKRYTIITSGCLFQFPPCRDSVSFTGSVKETGENFFYRIYDRELFLHIMHRLRAVKREKTPAEAKAVLPKCKCYE | not soluble |
| PFSFCRRIYLPTDLRSYPSVRNVLIHEQEHTRATHFVDLLIAEVACMLFWFNPFAWALKRDMQRNLEFLADRAVLLRGVSRREYQYELL | not soluble |
| RKQDTQRALHLLEEYRSKLSQTEDRQLRSSIERVISIFQSNLFQALIDIQEFYEVTLLDN | soluble |
| MSLTSEIVNSAWKVIPMFESRSIPLTVDFYTKTLGFELGSVKPEDNESELYFCSLAIGKKADANFYFSKVTPETFKSSHAMIGLGTRQLDDYYVYLKGKIEVEFSEDIEDKPWGFRQFTIKDTDGNSLTFFKFLEGGNPGDEGHHHHHH | soluble |
| MNINILLSTYNGERFLAEQIQSIQRQTVNDWTLLIRDDGSTDGTQDIIRTFVKEDKRIQWINEGQTENLGVIKNFYTLLKHQKADVYFFSDQDDIWLDNKLEVTLLEAQKHEMTAPLLVYTDLKVVTQHLAVCHDSMIKTQSGHANTSLLQELTENTVTGGTMMITHALAEEWTTCDGLLMHDWYLALLASAIGKLVYLDIPTELYRQHDANVLGARTWSKRMKNWLTPHHLVNKYWWLITSSQKQAQLLLDLPLKPNDHELVTAYVSLLDMPFTKRLATLKRYGFRKNRIFHTFIFRSLVVTLFGYRRK | not soluble |
| MSNNKQAWTGQLDLSVFNNGKKSVARDVFFEKALKVMRPVYLNQSDIPTFYIVNVGGGYLDGDRYTMNFNIDSDAKVILTSQGATKIYKTLNDHVEQYQTFNIKNNGYAEYVGDPIIAFENAKFYQHNVFNLESTASLFYTDILTPGYSKSDKRFSYTYMHLLNEIYVDDALVTFDNMLLDPQKQNVDGLGYMEDYTHLGSCYFIHPSVNQKFIEQVYEEIKHFQHKYDCRFGITHLPTHGFSLRILSNKTQVIESIITAVQCYVVKQIFDRDVDFLRKYLEHHHHHH | not soluble |
| PLSQVVRFHASSGTTGKPTVVGYTANDIRNWVESLCRALVSCGVSSDDIMQIAYGYGLFTGGLGFHYAAERLGATVLPISAGNTARQIELMKDLGSTVMACTPSYMIYLAEYASQMGVDIAEDTNLRAGIFGAEPWSEETRKRIEDKTGITAYDVYGTSELSGPLFTECTER | not soluble |
| MKEKIPFYNEKEFHDMVKKTKKGTFSGWYIINKNNNSVEFSGSFNRQFKLNKPVIPVNTEYVTRKEFNEYKDSNDQRLTKIETELKSQGQRIQVVEDKVDRLTEVVMVQSQQIKTQGEAMNARMDRFESLVLKSLESIGNTLTDFGKRLDVIETRLDKIDPPKLEHHHHHH | not soluble |
